Laboratory results: patent US20150111231A1 (SHIONOGI, published 2015)
Groups on a side chain read outwards from the residue. Primed or numbered codes have the meaning given here. No end group written: not given here. *: point of attachment. Biotin = O=C1N[C@H]2[C@H](CS[C@H]2CCCCC(=O)*)N1; PEG2′ = not defined here

B1: biotinylated N-terminal cysteine-containing neoepitope peptide (peptide)
peptide: C([Maleimide-PEG2′-Biotin])TEEISEVKM
notes: also called biotinylated peptide; biotynylated peptide
B2: anti-neoepitope antibody 4G4 (antibody, IgG2a, V domains shown)
VH: EMKLVESGGGLVEPGGSLKLSCAASGFTFSNYAMSWVRQTPDKRLEWVASIGRGGSTFYPDSVKGRFTISRDRVRNILYLQMNSLRSEDTAIYYCRVIYSQSISFDYWGQGTTLTVSS
VL: not shown
notes: It was biotinylated when used as capture antibody in the sandwich ELISA; also called anti-sAPP β monoclonal antibody (4G4)

Experiments:
[1] = target: B2; assay: competitive ELISA: 4G4 captured on anti-mouse IgG plate, unlabelled immunogen peptide (SEQ ID No. 2) varied against the biotinylated neoepitope peptide with streptavidin-HRP
Description: 10 μl of the antibody solution containing 4G4 and 10 μl of the immunogen peptide (SEQ ID No.:2) or the long peptide ([…] SEQ ID No. 3 SIGMA) or human sAPPβ (MESO SCALE DISCOVERY) or human sAPPα (MESO SCALE DISCOVERY) and 10 μl of 0.04 ng the biotynylated peptide and 2 ng streptavidin-HRP in buffer A were placed into the above anti-mouse IgG-immobilized plates and incubated overnight at 4° C. The plates were washed three times and 25 μl of TMB substrate solution (DAKO) was added and incubated for 30 min. The reaction was finally stopped by addition of 25 μl of 0.05NH2SO4, and optical absorbance was measured at wavelength of 450 nm (FIG. 3).

[2] = target: B1; assay: screening ELISA: hybridoma supernatant on anti-mouse IgG plate, biotinylated peptide and streptavidin-HRP
[3] = target: T1, anti-internal structure antibody 5H10; assay: competitive ELISA of 5H10, unlabelled peptide varied against the biotinylated internal structural peptide
T1 construct: also called internal antibody 5H10; internal structural antibody
Description: Reactivity of the antibody, 5H10 to the four fragment peptides 1˜4 (SEQ ID No.: 8, 9, 10, 11) was evaluated by competitive ELISA in the same method as Example 1.

T1 sequence (VH, as listed by the source, chain 1 of 2): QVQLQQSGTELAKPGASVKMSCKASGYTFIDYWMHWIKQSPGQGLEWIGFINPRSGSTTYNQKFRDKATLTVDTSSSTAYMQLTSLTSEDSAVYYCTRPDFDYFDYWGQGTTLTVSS
T1 sequence (VL, as listed by the source, chain 2 of 2): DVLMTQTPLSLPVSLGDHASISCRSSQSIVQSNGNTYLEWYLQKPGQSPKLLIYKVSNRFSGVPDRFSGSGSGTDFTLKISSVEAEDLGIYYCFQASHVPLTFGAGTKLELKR

Row | Binder | binding result [3] | further results
1 | B1 | – | binding result [1]: binds
2 | B2 | – | binding result [2]: binds
3 | DSVPANTENEVE (partial peptide of the 5H10 immunogen; also called fragment peptide 1) [Fragment 1] | no binding (tested: about 150 nM) | –
4 | DSVPANTENEVEPVDARPAADRGLTTRPGSGLTNC (also called C-terminal cysteine-containing internal structural peptide; Immunogen 2 peptide) [Immunogen peptide] | binds | –
5 | RPAADRGLTTRP (partial peptide of the 5H10 immunogen; also called fragment peptide 3) [Fragment 3] | no binding (tested: about 150 nM) | –
6 | NEVEPVDARPAA (partial peptide of the 5H10 immunogen; also called fragment peptide 2) [Fragment 2] | no binding (tested: about 150 nM) | –
